Experimental data as given in patent publication US20040086528A1 (PROGENICS PHARMACEUTICALS, published 2004).

How the values were obtained:
soluble CD4 = target: T1, soluble CD4 (UniProt P01730 26-394); experiment: 125I-MIP-1β competition on activated CD4+ T cells
T1 construct: also called sCD4
Method: (§1) PBMCs were isolated from blood donors by Ficoll-Hypaque centrifugation, and stimulated for 2-3 days with phytohaemagglutnin (5 μg ml⁻¹) and IL-2 (100 U ml⁻¹) (Roche). CD4⁺ T cells were purified from the activated PBMCs by positive selection using anti-CD4 immunomagnetic beads (Dynal Inc.). […] The cells were screened for CCR-5-defective alleles(14), and only cells from wild-type donors were used (except when specified).
(§2) Unlabelled ligand or gp120 (mixed with monoclonal antibodies when appropriate) was added to the cells immediately before radiolabelled ligand was added. Anti-CD4 monoclonal antibodies were added to the cells simultaneously with gp120. These cells were then separated from unbound ligand by centrifugation (60 s, 14, 000 g) through oil (80% silicone oil, Aldrich; 20% mineral oil, Sigma), and the radioactivity in the cell pellet was determined by gamma counting. […] Each experiment was repeated at least twice using cells from different donors.

SF162 gp120 = target: T2, SF162 gp120 (HIV-1 SF162, UniProt P19550 32-502); experiment: 125I-MIP-1β competition on activated CD4+ T cells
T2 construct: domain: gp120; also called SF 162 (B)
Method: as §1, §2

B1: chemokine receptor C-C CKR-5 (human) (receptor)
chain: not shown
notes: whole, on cells; also called CCR-5; CCR5
Soluble CD4
  binding result: no binding (tested: 50 µg ml^-1)
SF162 gp120
  binding result: binds
